These results are taken from patent US7235627B2 (Novo Nordisk A/S, priority 1996, dated 2007).

Assay [1] addresses T1, cloned human GLP-1 receptor (Homo sapiens, UniProt P43220). Put plainly: cell-based or functional assay.
In assay [2] the target is T1, cloned human GLP-1 receptor. Put plainly: biochemical.

A word on the EC50: it is the concentration needed to bring the measured effect to its halfway point.

T1 sequence (P43220 24-463): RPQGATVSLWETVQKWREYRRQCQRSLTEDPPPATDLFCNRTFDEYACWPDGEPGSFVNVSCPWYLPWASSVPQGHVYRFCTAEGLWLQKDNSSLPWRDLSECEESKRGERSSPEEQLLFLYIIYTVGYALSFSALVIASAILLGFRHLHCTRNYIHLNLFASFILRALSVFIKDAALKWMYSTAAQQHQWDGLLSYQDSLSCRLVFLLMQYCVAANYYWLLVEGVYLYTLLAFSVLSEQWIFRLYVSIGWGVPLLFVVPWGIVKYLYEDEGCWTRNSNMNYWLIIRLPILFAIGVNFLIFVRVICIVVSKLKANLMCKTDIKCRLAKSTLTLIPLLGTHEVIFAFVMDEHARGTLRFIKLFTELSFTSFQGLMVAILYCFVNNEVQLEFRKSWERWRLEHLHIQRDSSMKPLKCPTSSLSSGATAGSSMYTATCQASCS

“Arg^26,34Lys^36(N^ε-(ω-carboxyheptanoyl))-GLP-1(7-36)-OH (peptide)”: the EC50, pM (stimulation of cAMP formation) in assay [1] was determined as 8.8 pM.
On the same count and under the same terms, in the case of “Arg^34Lys^26(N^ε-(γ-glutamyl(N^α-hexadecanoyl)))-GLP-1(7-37)-OH (peptide)” it was 60 pM.
On to `CC[C@H](C)[C@H](NC(=O)[C@H](Cc1ccccc1)NC(=O)[C@H](CCC(=O)O)NC(=O)[C@H](CCCNC(=N)N)NC(=O)[C@H](C)NC(=O)[C@H](C)NC(=O)[C@H](CCC(N)=O)NC(=O)CNC(=O)[C@H](CCC(=O)O)NC(=O)[C@H](CC(C)C)NC(=O)[C@H](Cc1ccc(O)cc1)NC(=O)[C@H](CO)NC(=O)[C@H](CO)NC(=O)[C@@H](NC(=O)[C@H](CC(=O)O)NC(=O)[C@H](CO)NC(=O)[C@@H](NC(=O)[C@H](Cc1ccccc1)NC(=O)[C@@H](NC(=O)CNC(=O)[C@H](CCC(=O)O)NC(=O)[C@H](C)NC(=O)[C@@H](N)Cc1c[nH]cn1)[C@@H](C)O)[C@@H](C)O)C(C)C)C(=O)N[C@@H](C)C(=O)N[C@@H](Cc1c[nH]c2ccccc12)C(=O)N[C@@H](CC(C)C)C(=O)N[C@H](C(=O)N[C@@H](CCCNC(=N)N)C(=O)NCC(=O)N[C@@H](CCCNC(=N)N)C(=O)NCC(=O)N[C@@H](CCCCNC(=O)CCCCCCCCCCC(=O)O)C(=O)O)C(C)C` [Example 16, Arg^26,34Lys^38(N^ε-(ω-carboxyundecanoyl))-GLP-1(7–38)-OH], for which the EC50 in assay [2] was 3.5 pM.
As to “Arg^26,34Lys^38(N^ε-(ω-carboxyundecanoyl))-GLP-1(7-38)-OH (peptide)”, the EC50, pM (stimulation of cAMP formation) in assay [1] came out at 3.5 pM.
